Laboratory results as given in patent publication US20190367606A1 (CENTRE FOR DRUG RESEARCH AND DEVELOPMENT, published 2019).
Each block holds one molecule with its values, some of them ahead of it.

Assays:
[1] = target: T1, human podocalyxin (human, UniProt O00592 23-558); assay: cross competition FACS, MDA-MB-231 cells; row antibody unlabelled 25 ug/mL first; competitor (detected): B-3G2.2 5 ug/mL
T1 construct: also called hPodo; hPodocalyxin
T1 sequence: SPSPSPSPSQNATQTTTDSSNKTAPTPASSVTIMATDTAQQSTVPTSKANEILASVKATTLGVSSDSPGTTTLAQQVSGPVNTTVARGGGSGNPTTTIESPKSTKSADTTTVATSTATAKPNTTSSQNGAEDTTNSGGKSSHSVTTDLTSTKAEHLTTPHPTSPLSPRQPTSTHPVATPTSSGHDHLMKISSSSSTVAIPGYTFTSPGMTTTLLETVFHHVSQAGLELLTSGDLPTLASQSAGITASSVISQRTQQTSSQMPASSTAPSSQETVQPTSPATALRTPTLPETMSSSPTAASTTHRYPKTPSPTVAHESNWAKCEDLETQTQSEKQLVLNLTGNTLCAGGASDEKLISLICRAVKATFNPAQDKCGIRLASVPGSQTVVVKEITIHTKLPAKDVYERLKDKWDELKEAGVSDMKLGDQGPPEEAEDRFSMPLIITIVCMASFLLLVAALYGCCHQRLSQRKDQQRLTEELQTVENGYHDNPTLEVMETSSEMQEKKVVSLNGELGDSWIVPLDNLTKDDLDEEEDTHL

[2] = target: T1, human podocalyxin; assay: cross competition FACS, MDA-MB-231 cells; row antibody unlabelled 25 ug/mL first; competitor (detected): B-mlgG1 5 ug/mL (control)
[3] = target: T1, human podocalyxin; assay: cross competition FACS, MDA-MB-231 cells; row antibody unlabelled 25 ug/mL first; competitor (detected): B-Ova 12 5 ug/mL (control)
[4] = target: T1, human podocalyxin; assay: cross competition FACS, MDA-MB-231 cells; row antibody unlabelled 25 ug/mL first; competitor (detected): biotinylated Rb/Hu Podo83 5 ug/mL
[5] = target: T1, human podocalyxin; assay: FACS, isotype control, hPodo/MDA (MDA-MB-231 cells transfected with human Podocalyxin cDNA)
[6] = target: T1, human podocalyxin; assay: kinetic exclusion assay (KinExA 3200), MDA-MB-231 cells
Description: The concentration dependence of free anti-podocalyxin antibody as a function of MDA-MB231 cell number was determined using a KinExA 3200 instrument (Sapidyne Instruments). Briefly, MDA-MB-231 cells, which express endogenous podocalyxin, were titrated 1:2 from 10×10⁶ cells/mL down 12 steps, and incubated with a fixed concentration of anti-podocalyxin antibodies. MDA-MB231 cells and cell bound antibodies were then isolated by centrifugation. Supernatant containing free, unbound antibody was then transferred to a new tube. The supernatant containing free unbound antibody was passed over the column containing PMMA beads coated with a goat anti-IgG-Fc capture antibody. The amount of free antibody captured on the PMMA beads was then measured using a goat anti-IgG-Fc-A647. This process was repeated for every cell concentration. For each sample assayed a new column of PMMA beads with the goat anti-IgG-Fc capture antibody was packed. The concentration of free antibody over the entire 12 step dilution series was then used to determine the antibody Kd's using the standard Kd template in the KineExA Pro Software (Sapidyne Instruments).

[7] = target: T1, human podocalyxin; assay: flow cytometry, supernatant 1:5, MDA-MB-231 cells
Description: (§1) The following antibodies were transiently transfected in 293HEK cells, transfected cells were incubated for 96 hours, antibody containing supernatant was then serially titrated in FACS sample buffer. The following supernatants were used as test samples:
(§2) MDA transient transfectants were established as essentially described above in Example 1. MDA transient transfectants and MDA-MB-231 cells were seeded in 96-well v bottom plates at 75,000 cells/well. Cells were pelleted by centrifugation at 400 g for 3 min. Supernatant was removed. The cell pellets were resuspended in 20 μl of the antibody or control supernatants. The plate was incubated on ice for 1 hour.
(§3) The cells were washed by adding 200 μl FACS buffer to dilute unbound antibody. The plate was centrifuged at 400 g for 3 min to pellet cells. The supernatant was removed and repeated. The cell pellets were resuspended in 25 μl of either goat anti-Hu IgG Fc-Alexa647, goat anti-Mouse IgG Fc-Alexa647, or goat anti-rabbit IgG0Fc-A647 (2 μg/ml) and 7A.A.D (2.5 μg/ml). The plates were incubated on ice for 0.5 hours. The wash procedure was again repeated 2×. The cell pellets were finally resuspended in 75 μl FACS buffer and read on the HTFC™ Screening System (IntelliCyt Corporation) (3 sec sip, 1.5 up time) and analyzed on the HyperView® software (IntelliCyt Corporation).

[8] = target: T1, human podocalyxin; assay: flow cytometry, supernatant Neat, MDA-MB-231 cells
Description: as §1, §2, §3

[9] = target: T1, human podocalyxin; assay: flow cytometry, supernatant 1:125, hPodo/MDA-MB-231 transient transfectants
Description: as §1, §2, §3

[10] = target: T1, human podocalyxin; assay: flow cytometry, supernatant 1:125, MDA-MB-231 cells
Description: as §1, §2, §3

[11] = target: T1, human podocalyxin; assay: flow cytometry, supernatant Neat, hPodo/MDA-MB-231 transient transfectants
Description: as §1, §2, §3

[12] = target: T1, human podocalyxin; assay: flow cytometry, supernatant 2:15 (so in the source), MDA-MB-231 cells
Description: as §1, §2, §3

[13] = target: T1, human podocalyxin; assay: flow cytometry, supernatant 1:5, hPodo/MDA-MB-231 transient transfectants
Description: as §1, §2, §3

[14] = target: T1, human podocalyxin; assay: flow cytometry, supernatant 2:15 (so in the source), hPodo/MDA-MB-231 transient transfectants
Description: as §1, §2, §3

[15] = target: T1, human podocalyxin; assay: flow cytometry titration on 293-6E cells (endogenous podocalyxin), 48 hours at 4 C
Description: (§4) The affinities of huPodo 83 1:1 and huPodo 83 2:1 antibodies were determined against endogenously expressed podocalyxin on 293 HEK cells. 293-6E cells were seeded in 96-well v bottom plates at 100,000 cells/well. The cells were pelleted at 400 g for 3 min and the supernatant was discarded. The cells were placed on ice and antibody 1:3 titrations were prepared using ice cold medium. The cells were resuspended in the prepared antibody titrations at 25 μl/well and incubated at 4° C. for either 24 or 48 hours. 200 μl 1% FBS/PGS (FACS buffer) was added to each well. The cells were pelleted at 400 g for 3 min and supernatant removed. The wash was repeated 2 more times. The cells were resuspended in goat anti-human IgGFc-A647 (2 μg/ml)+2.5 μg/ml 7AAD and incubated on ice for 30 min. The cells were washed as above and resuspended in 50 μl FACS buffer. The cells were analyzed by flow cytometry using the HTFC™ Screening System (IntelliCyt Corporation) (3 sec sip, 1.5 sec up) and the C6 cytometer (Becton Dickenson).

[16] = target: T1, human podocalyxin; assay: flow cytometry titration on 293-6E cells (endogenous podocalyxin), 24 hours at 4 C
Description: as §4

Molecule: MAB1658 (R&D Systems) (antibody)
- FACS signal of the biotinylated antibody named under assay [1]: 26900
- FACS signal of the biotinylated antibody named under assay [2]: 431
- FACS signal of the biotinylated antibody named under assay [3]: 476
- FACS signal of the biotinylated antibody named under assay [4]: 127000

Molecule: 3D3 (Santa Cruz Biotechnology sc23904) (antibody)
- FACS signal of the biotinylated antibody named under assay [1]: 26400
- FACS signal of the biotinylated antibody named under assay [2]: 419
- FACS signal of the biotinylated antibody named under assay [3]: 450
- FACS signal of the biotinylated antibody named under assay [4]: 135000

B2: Rabbit Podo 83 (Parental rabbit antibody) (antibody, V domains shown)
VH: QSLAESGGRLVTPGTPLTLTCTASGIDLSSYAMGWVRQAPGKGLEYIGFIYASGSIFYASWAKGRFTISKTSSTTVDLKMTSLTTEDTATYFCARAGYYFGGNYDLNLWGQGTLVTVSS
VL: DIVLTQTPASVEVAVGGTVTIKCQASQSISNYLAWYQRKPGQPPRLLIYRASTLASGVSSRFKGSGSGTQFTLTISGVECADAATYYCQQGYVSNNLDNIFGGGTEVVVK
notes: Rabbit constant regions; also called Rb Podo 83 (Rb Constant Region); rabbit Podo-83 (Ab-1)
- flow cytometry fluorescence (name not given) [7]: 129000
- flow cytometry fluorescence (name not given) [8]: 179000
- flow cytometry fluorescence (name not given) [9]: 24100
- flow cytometry fluorescence (name not given) [10]: 15500
- flow cytometry fluorescence (name not given) [11]: 90800
- flow cytometry fluorescence (name not given) [12]: 53700
- flow cytometry fluorescence (name not given) [13]: 139000
- flow cytometry fluorescence (name not given) [14]: 89700

B5: Rb VH, Vk 1:1 (Podo 83 rabbit VH, human CH1-CH3, human Ck, and humanized Vk) (antibody, V domains shown)
VH: B2 VH
VL: DIQMTQSPSSLSASVGDRVTITCQASQSISNYLAWYQQKPGKVPKLLIYRASTLASGVPSRFSGSGSGTDFTLTISSLQPEDVATYYCQQGYVSNNLDNIFGGGTEVVVK
notes: Human CH1-CH3 and human Ck
- flow cytometry fluorescence (name not given) [7]: 115000
- flow cytometry fluorescence (name not given) [8]: 130000
- flow cytometry fluorescence (name not given) [9]: 74500
- flow cytometry fluorescence (name not given) [10]: 47700
- flow cytometry fluorescence (name not given) [11]: 137000
- flow cytometry fluorescence (name not given) [12]: 94800
- flow cytometry fluorescence (name not given) [13]: 124000
- flow cytometry fluorescence (name not given) [14]: 76400

The remaining lines, values ahead:

- FACS signal (name not given) [5]: 544
Molecule: hlgG1 (antibody)

- FACS signal (name not given) [5]: 533
Molecule: hlgG2 (antibody)

- Kd [6]: 3.34 nM
B1: mouse anti-podocalyxin antibody 3G2 (Ab-2) (antibody, V domains shown)
VH: EVQLQQSGPELVKPGASVKMSCKASGYTFTSYVMHWVKQKPGQGLEWIGYIHPYNDGTNYNEKFKGKATLTSDKSSNTAYMELSSLTSEDSAVYYCARSWDWYFDVWGAGTTVTVSS
VL: QIVLTQSPAIMSASPGEKVTMTCSANSNVRYIHWHQQKSGTSPKRWIYDTSKLSSGVPARFSGSGSGTSYSLTISNMEAEDAATYYCQQWISNPLTFGAGTKLELK
notes: also called 3G2.2; Podo-3G2.2

- Kd [6]: 0.26 nM
- flow cytometry fluorescence (name not given) [7]: 112000
- IC50 [15]: 0.0355 µg/mL
- flow cytometry fluorescence (name not given) [8]: 125000
- IC50 [16]: 0.0331 µg/mL
- flow cytometry fluorescence (name not given) [9]: 61600
- flow cytometry fluorescence (name not given) [10]: 39400
- flow cytometry fluorescence (name not given) [11]: 124000
- flow cytometry fluorescence (name not given) [12]: 91500
- flow cytometry fluorescence (name not given) [13]: 128000
- flow cytometry fluorescence (name not given) [14]: 157000
B3: huPodo 83 1:1 (humanized anti-podocalyxin antibody 83, version 1) (antibody, V domains shown)
VH: EVQLVESGGGLVQPGGSLRLSCAASGIDLSSYAMGWVRQAPGKGLEWVSFIYASGSIFYASWAKGRFTISRDNSKNTLYLQMNSLRAEDTAVYYCARAGYYFGGNYDLNLWGQGTLVTVSS
VL: B5 VL
notes: Cloned into pTT5 plasmids with human IgG heavy chain and human Ig kappa constant regions

- flow cytometry fluorescence (name not given) [7]: 105000
- IC50 [15]: 0.052 µg/mL
- flow cytometry fluorescence (name not given) [8]: 123000
- IC50 [16]: 0.0519 µg/mL
- flow cytometry fluorescence (name not given) [9]: 37700
- flow cytometry fluorescence (name not given) [10]: 22300
- flow cytometry fluorescence (name not given) [11]: 139000
- flow cytometry fluorescence (name not given) [12]: 67200
- flow cytometry fluorescence (name not given) [13]: 108000
- flow cytometry fluorescence (name not given) [14]: 79400
B4: huPodo 83 2:1 (humanized anti-podocalyxin antibody 83, version 2) (antibody, V domains shown)
VH: EVQLVESGGGLVQPGGSLRLSCAASGIDLSSYAMGWVRQAPGKGLEWVSFIYASGSIFYASWAKGRFTISRDNSNTLYLQMNSLRAEDTAVYYCARAGYYFGGNYDLNLWGQGTLVTVSS
VL: B5 VL
notes: as for B3
